Experimental data as given in US20240317874A1 (HIFIBIO HK, published 2024).

How the values were obtained:
[1] = molecular target: T1, biotinylated OX40 recombinant protein (UniProt P43489 29-216, limits assumed, biotinylated); assay: ELISA, plate coated with the antibody, biotinylated OX40 recombinant protein titrated (x axis = its concentration in nM), OD 450nm
T1 construct: also called OX40 protein; Biotin-OX40
T1 sequence (looked up): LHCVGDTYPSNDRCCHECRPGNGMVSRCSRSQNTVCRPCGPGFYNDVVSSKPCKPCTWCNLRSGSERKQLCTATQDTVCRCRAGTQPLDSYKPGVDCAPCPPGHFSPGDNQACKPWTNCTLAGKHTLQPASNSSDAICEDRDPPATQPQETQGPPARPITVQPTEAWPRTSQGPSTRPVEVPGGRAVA
Protocol: The next day, the plate was blocked with 1% BSA (Sangon Biotech, catalog number A600332-0100) in PBST at 37° C. for 2 hours, and then a defined concentration of biotinylated OX40 recombinant protein was added.

[2] = molecular target: T2, human CD40 protein expressed on the surface of 293T cells (human, UniProt P25942 21-277); assay: flow cytometry on 293T cells transiently transfected with human CD40 (293T-hCD40), goat anti-human IgG PE, MFI
T2 construct: whole, on cells
Protocol: (§1) Then, after washing twice with PBS, the cells were incubated with the secondary goat anti-human IgG PE antibody (1:200; Abcam, Cat. ab98596) at room temperature for 30 minutes.

[3] = molecular target: T3, mouse OX40 protein expressed on the surface of 293T cells (mouse, UniProt P47741 20-272); assay: flow cytometry on 293T cells transiently transfected with mouse OX40, goat anti-human IgG PE, MFI
T3 construct: whole, on cells
T3 sequence (looked up): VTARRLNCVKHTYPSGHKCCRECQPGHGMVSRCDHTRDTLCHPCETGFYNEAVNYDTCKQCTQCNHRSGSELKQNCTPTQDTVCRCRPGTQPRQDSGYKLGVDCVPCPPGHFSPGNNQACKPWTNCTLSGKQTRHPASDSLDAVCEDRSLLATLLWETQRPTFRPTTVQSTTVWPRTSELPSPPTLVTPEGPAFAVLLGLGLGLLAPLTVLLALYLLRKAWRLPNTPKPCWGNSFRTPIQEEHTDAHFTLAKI
Protocol: as §1

[4] = molecular target: T4, human OX40 protein expressed on the surface of cells (human, UniProt P43489 29-277); assay: flow cytometry (MFI) on CD3/CD28-activated primary human CD4+CD3+ T cells, first donor
T4 construct: also called hOX40
T4 sequence: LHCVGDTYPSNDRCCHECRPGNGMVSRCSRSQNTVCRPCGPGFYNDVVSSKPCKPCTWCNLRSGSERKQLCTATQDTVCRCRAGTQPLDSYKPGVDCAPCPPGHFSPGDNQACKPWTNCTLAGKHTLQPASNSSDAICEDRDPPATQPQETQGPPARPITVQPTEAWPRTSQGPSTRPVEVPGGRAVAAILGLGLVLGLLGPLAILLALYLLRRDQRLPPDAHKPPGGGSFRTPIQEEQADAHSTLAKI

[5] = molecular target: T5, cynomolgus monkey OX40 protein expressed on the surface of cells (cynomolgus monkey); assay: flow cytometry (MFI) on activated primary monkey T cells, donor M20Z025008
T5 construct: whole, on cells; On transiently transfected 293T cells

[6] = molecular target: T4, human OX40 protein expressed on the …; assay: flow cytometry (MFI) on 293T cells expressing human OX40
[7] = molecular target: T5, cynomolgus monkey OX40 protein …; assay: flow cytometry (MFI) on activated primary monkey T cells, donor Lot #200107
[8] = molecular target: T5, cynomolgus monkey OX40 protein …; assay: flow cytometry (MFI) on activated primary monkey T cells, donor M20Z013009
[9] = molecular target: T4, human OX40 protein expressed on the …; assay: flow cytometry (MFI) on transfected 293T cells
[10] = molecular target: T5, cynomolgus monkey OX40 protein …; assay: flow cytometry (MFI) on transfected 293T cells
[11] = molecular target: T4, human OX40 protein expressed on the …; assay: cell-based or functional assay
[12] = molecular target: T6, recombinant human OX40-mFc protein (human, UniProt P43489 29-214); assay: BLI (Octet QKe), antibody on anti-human Fc sensor, OX40-mFc in solution, 25 C, pH 7.4, 1:1 model; Experiment A
T6 construct: Recombinant dimer (mFc-tagged); also called hOX40.mFc; recombinant human OX40 protein; not shown: mFc tag
T6 sequence: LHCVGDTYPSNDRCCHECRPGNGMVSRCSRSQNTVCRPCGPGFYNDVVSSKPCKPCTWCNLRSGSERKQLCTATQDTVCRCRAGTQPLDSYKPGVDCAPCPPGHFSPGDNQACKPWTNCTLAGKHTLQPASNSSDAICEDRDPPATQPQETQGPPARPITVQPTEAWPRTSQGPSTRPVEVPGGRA

[13] = molecular target: T5, cynomolgus monkey OX40 protein …; assay: flow cytometry (MFI) on 293T cells expressing cynomolgus monkey OX40
[14] = molecular target: T6, recombinant human OX40-mFc protein; assay: BLI (Octet QKe), antibody on anti-human Fc sensor, OX40-mFc in solution, 25 C, pH 7.4, 1:1 model; Experiment B
Protocol: The changes of binding signal were recorded, and the kinetic analysis of binding parameters were determined using the Model: 1:1 with the mass transfer limitation. The running buffer solution was prepared with PBS, pH 7.4, containing 0.1% BSA and 0.1% Tween 20. Prior to the kinetic binding experiment, the anti-human Fe capture sensor was rinsed with the running buffer, and the instrument was prewarmed to 25° C. […] The binding of OX40 protein and its antibodies was performed in duplicate with the running buffer at pH 7.4 and 25° C. In short, first, the anti-human Fc capture sensor was immersed in the running buffer for 300 seconds to set the first baseline. The sensor was then mixed with 200 nM test antibody solution for 600 seconds to load the antibody. The sensor was again immersed in the running buffer for 300 seconds to set the second baseline, and then associated with various concentrations of OX40 antigen for 900 seconds. Then dissociation was performed by immersing the sensor in the running buffer for another 900 seconds. In parallel, one sensor was selected as a reference, in which all loading, association, and dissociation steps were performed in the running buffer. […] The sensorgrams were analyzed by Fortebio data analysis software version 8.2 (ForteBio; Fremont, CA). First, the signals were subtracted from the negative control experiment, and compared to the baselines. The kinetic parameters were obtained by entirely fitting these specific sensorgrams with different antigen concentrations to the binding Model: 1:1.

[15] = molecular target: T4, human OX40 protein expressed on the …; assay: flow cytometry (MFI) on CD3/CD28-activated primary human CD4+CD3+ T cells, second donor
Protocol: Activation of human T cells were evaluated using CD3⁺ T cells isolated from two human donors' peripheral blood mononuclear cells (hPBMCs) pre-activated using CD3/CD28 Dynabeads.

T2 sequence (P25942 21-277): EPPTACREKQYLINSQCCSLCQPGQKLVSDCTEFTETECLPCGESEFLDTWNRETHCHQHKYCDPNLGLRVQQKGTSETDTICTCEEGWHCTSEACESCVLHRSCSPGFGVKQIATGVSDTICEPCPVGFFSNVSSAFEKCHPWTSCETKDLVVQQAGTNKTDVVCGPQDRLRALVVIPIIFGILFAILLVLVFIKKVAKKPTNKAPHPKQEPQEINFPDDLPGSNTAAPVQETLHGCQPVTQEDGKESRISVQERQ

EC50 (read off the curve) [1]: ~200 pM | binding result [2]: no binding (tested: 100 nM) | binding result [3]: no binding (tested: 100 nM) | EC50 [4]: 650 pM | EC50 [5]: 170 pM | EC50 [6]: 2020 pM | EC50 [7]: 90 pM | EC50 [8]: 190 pM | EC50 [9]: 2000 pM | EC50 [10]: 2900 pM | CD16 signaling in CD16-NF-AT-Luc reporter Jurkat cells, EC50 (nM), E:T 1:1 [11]: 1.2 nM | CD16 signaling in CD16-NF-AT-Luc reporter Jurkat cells, EC50 (nM), E:T 3:1 [11]: 0.7 nM | CD16 signaling in CD16-NF-AT-Luc reporter Jurkat cells, EC50 (nM), E:T 6:1 [11]: 0.5 nM | CD16 signaling in CD16-NF-AT-Luc reporter Jurkat cells, EC50 (nM), E:T 12:1 [11]: 0.3 nM | Kd [12]: 4500 pM | koff [12]: 0.00043 s⁻¹ | kon [12]: 97000 M⁻¹ s⁻¹ | EC50 [13]: 2940 pM | Kd [14]: 4400 pM | koff [14]: 0.00043 s⁻¹ | kon [14]: 97000 M⁻¹ s⁻¹ | EC50 [15]: 1360 pM
B1: anti-OX40 antibody HFB10-1E1hG1 (antibody, human IgG1, kappa, V domains shown)
VH: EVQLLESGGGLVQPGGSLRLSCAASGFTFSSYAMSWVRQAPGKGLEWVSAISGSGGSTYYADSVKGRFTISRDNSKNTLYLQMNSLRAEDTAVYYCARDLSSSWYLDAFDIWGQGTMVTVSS
VL: DIQMTQSPSSVSASVGDRVTITCRASQGISSWLAWYQQKPGKAPKLLIYAASSLQSGVPSRFSGSGSGTDFTLTISSLQPEDFATYYCQQANSFPLTFGGGTKLEIKR
notes: also called HFB301001
